Measurements from patent publication US20240117018A1.

How the values were obtained:
Experiment in all cases: cell-based or functional assay
[1] = biological target: HIV-1 Env of pseudovirus 0815.v3.c3 (HIV-1)
[2] = biological target: HIV-1 Env of pseudovirus 211-9 (HIV-1)
[3] = biological target: HIV-1 Env of pseudovirus 231965.c01 (HIV-1)
[4] = biological target: HIV-1 Env of pseudovirus 231966.c02 (HIV-1)
[5] = biological target: HIV-1 Env of pseudovirus 235-47 (HIV-1)
[6] = biological target: HIV-1 Env of pseudovirus 3016.v5.c45 (HIV-1)
[7] = biological target: HIV-1 Env of pseudovirus 3103.v3.c10 (HIV-1)
[8] = biological target: HIV-1 Env of pseudovirus 3301.v1.c24 (HIV-1)
[9] = biological target: HIV-1 Env of pseudovirus 3817.v2.c59 (HIV-1)
[10] = biological target: HIV-1 Env of pseudovirus 620345.c01 (HIV-1)
[11] = biological target: HIV-1 Env of pseudovirus 6480.v4.c25 (HIV-1)
[12] = biological target: HIV-1 Env of pseudovirus 6540.v4.c1 (HIV-1)
[13] = biological target: HIV-1 Env of pseudovirus 6545.v4.c1 (HIV-1)
[14] = biological target: HIV-1 Env of pseudovirus 6811.v7.c18 (HIV-1)
[15] = biological target: HIV-1 Env of pseudovirus 6952.v1.c20 (HIV-1)
[16] = biological target: HIV-1 Env of pseudovirus 89-F1_2_25 (HIV-1)
[17] = biological target: HIV-1 Env of pseudovirus A07412M1.vrc12 (HIV-1)
[18] = biological target: HIV-1 Env of pseudovirus BJOX010000.06.2 (HIV-1)
[19] = biological target: HIV-1 Env of pseudovirus BJOX015000.11.5 (HIV-1)
[20] = biological target: HIV-1 Env of pseudovirus BJOX025000.01.1 (HIV-1)
[21] = biological target: HIV-1 Env of pseudovirus BJOX028000.10.3 (HIV-1)
[22] = biological target: HIV-1 Env of pseudovirus C3347.c11 (HIV-1)
[23] = biological target: HIV-1 Env of pseudovirus C4118.c09 (HIV-1)
[24] = biological target: HIV-1 Env of pseudovirus P0402_c2_11 (HIV-1)
[25] = biological target: HIV-1 Env of pseudovirus P1981_C5_3 (HIV-1)
[26] = biological target: HIV-1 Env of pseudovirus R1166.c01 (HIV-1)
[27] = biological target: HIV-1 Env of pseudovirus R2184.c04 (HIV-1)
[28] = biological target: HIV-1 Env of pseudovirus R3265.c06 (HIV-1)
[29] = biological target: HIV-1 Env of pseudovirus T251-18 (HIV-1)
[30] = biological target: HIV-1 Env of pseudovirus T255-34 (HIV-1)
[31] = biological target: HIV-1 Env of pseudovirus X1254_c3 (HIV-1)
[32] = biological target: HIV-1 Env of pseudovirus X2131_C1_B5 (HIV-1)

10E8 (antibody)
IC50 neutralization (TZM.bl) [1]: 0.332 µg/mL | IC80 neutralization (TZM.bl) [1]: 2.87 µg/mL | IC50 neutralization (TZM.bl) [2]: 1.09 µg/mL | IC80 neutralization (TZM.bl) [2]: 6.51 µg/mL | IC50 neutralization (TZM.bl) [3]: > 10 µg/mL | IC80 neutralization (TZM.bl) [3]: > 10 µg/mL | IC50 neutralization (TZM.bl) [4]: 0.191 µg/mL | IC80 neutralization (TZM.bl) [4]: 3.13 µg/mL | IC50 neutralization (TZM.bl) [5]: 0.384 µg/mL | IC80 neutralization (TZM.bl) [5]: 2.07 µg/mL | IC50 neutralization (TZM.bl) [6]: 0.476 µg/mL | IC80 neutralization (TZM.bl) [6]: 4.39 µg/mL | IC50 neutralization (TZM.bl) [7]: > 10 µg/mL | IC80 neutralization (TZM.bl) [7]: > 10 µg/mL | IC50 neutralization (TZM.bl) [8]: 4.63 µg/mL | IC80 neutralization (TZM.bl) [8]: > 10 µg/mL | IC50 neutralization (TZM.bl) [9]: 1.18 µg/mL | IC80 neutralization (TZM.bl) [9]: 5.98 µg/mL | IC50 neutralization (TZM.bl) [10]: 0.455 µg/mL | IC80 neutralization (TZM.bl) [10]: 6 µg/mL | IC50 neutralization (TZM.bl) [11]: 8.08 µg/mL | IC80 neutralization (TZM.bl) [11]: > 10 µg/mL | IC50 neutralization (TZM.bl) [12]: 1.9 µg/mL | IC80 neutralization (TZM.bl) [12]: 10 µg/mL | IC50 neutralization (TZM.bl) [13]: 1.78 µg/mL | IC80 neutralization (TZM.bl) [13]: 8.23 µg/mL | IC50 neutralization (TZM.bl) [14]: 7.54 µg/mL | IC80 neutralization (TZM.bl) [14]: > 10 µg/mL | IC50 neutralization (TZM.bl) [15]: 0.343 µg/mL | IC80 neutralization (TZM.bl) [15]: 1.91 µg/mL | IC50 neutralization (TZM.bl) [16]: 1.11 µg/mL | IC80 neutralization (TZM.bl) [16]: 10 µg/mL | IC50 neutralization (TZM.bl) [17]: 0.576 µg/mL | IC80 neutralization (TZM.bl) [17]: 6.05 µg/mL | IC50 neutralization (TZM.bl) [18]: 0.341 µg/mL | IC80 neutralization (TZM.bl) [18]: 5.29 µg/mL | IC50 neutralization (TZM.bl) [19]: 0.051 µg/mL | IC80 neutralization (TZM.bl) [19]: 1.91 µg/mL | IC50 neutralization (TZM.bl) [20]: 0.107 µg/mL | IC80 neutralization (TZM.bl) [20]: 6.33 µg/mL | IC50 neutralization (TZM.bl) [21]: 0.665 µg/mL | IC80 neutralization (TZM.bl) [21]: 7.36 µg/mL | IC50 neutralization (TZM.bl) [22]: 0.016 µg/mL | IC80 neutralization (TZM.bl) [22]: 0.167 µg/mL | IC50 neutralization (TZM.bl) [23]: 1.62 µg/mL | IC80 neutralization (TZM.bl) [23]: 9.06 µg/mL | IC50 neutralization (TZM.bl) [24]: 0.172 µg/mL | IC80 neutralization (TZM.bl) [24]: 3.29 µg/mL | IC50 neutralization (TZM.bl) [25]: 0.057 µg/mL | IC80 neutralization (TZM.bl) [25]: 0.285 µg/mL | IC50 neutralization (TZM.bl) [26]: 0.274 µg/mL | IC80 neutralization (TZM.bl) [26]: 2.61 µg/mL | IC50 neutralization (TZM.bl) [27]: 0.272 µg/mL | IC80 neutralization (TZM.bl) [27]: 2.46 µg/mL | IC50 neutralization (TZM.bl) [28]: > 10 µg/mL | IC80 neutralization (TZM.bl) [28]: > 10 µg/mL | IC50 neutralization (TZM.bl) [29]: 2.36 µg/mL | IC80 neutralization (TZM.bl) [29]: > 10 µg/mL | IC50 neutralization (TZM.bl) [30]: 0.778 µg/mL | IC80 neutralization (TZM.bl) [30]: 4.21 µg/mL | IC50 neutralization (TZM.bl) [31]: 4.75 µg/mL | IC80 neutralization (TZM.bl) [31]: > 10 µg/mL | IC50 neutralization (TZM.bl) [32]: 0.189 µg/mL | IC80 neutralization (TZM.bl) [32]: 0.974 µg/mL

10-1074 (antibody)
IC50 neutralization (TZM.bl) [1]: 0.03 µg/mL | IC80 neutralization (TZM.bl) [1]: 0.138 µg/mL | IC50 neutralization (TZM.bl) [2]: 0.112 µg/mL | IC80 neutralization (TZM.bl) [2]: 0.425 µg/mL | IC50 neutralization (TZM.bl) [3]: > 50 µg/mL | IC80 neutralization (TZM.bl) [3]: > 50 µg/mL | IC50 neutralization (TZM.bl) [4]: > 50 µg/mL | IC80 neutralization (TZM.bl) [4]: > 50 µg/mL | IC50 neutralization (TZM.bl) [5]: 0.05 µg/mL | IC80 neutralization (TZM.bl) [5]: 0.163 µg/mL | IC50 neutralization (TZM.bl) [6]: > 50 µg/mL | IC80 neutralization (TZM.bl) [6]: > 50 µg/mL | IC50 neutralization (TZM.bl) [7]: 0.037 µg/mL | IC80 neutralization (TZM.bl) [7]: 0.101 µg/mL | IC50 neutralization (TZM.bl) [8]: 0.013 µg/mL | IC80 neutralization (TZM.bl) [8]: 0.042 µg/mL | IC50 neutralization (TZM.bl) [9]: 3.15 µg/mL | IC80 neutralization (TZM.bl) [9]: 14.9 µg/mL | IC50 neutralization (TZM.bl) [10]: > 50 µg/mL | IC80 neutralization (TZM.bl) [10]: > 50 µg/mL | IC50 neutralization (TZM.bl) [11]: 0.009 µg/mL | IC80 neutralization (TZM.bl) [11]: 0.041 µg/mL | IC50 neutralization (TZM.bl) [12]: > 50 µg/mL | IC80 neutralization (TZM.bl) [12]: > 50 µg/mL | IC50 neutralization (TZM.bl) [13]: > 50 µg/mL | IC80 neutralization (TZM.bl) [13]: > 50 µg/mL | IC50 neutralization (TZM.bl) [14]: 0.002 µg/mL | IC80 neutralization (TZM.bl) [14]: 0.01 µg/mL | IC50 neutralization (TZM.bl) [15]: 0.037 µg/mL | IC80 neutralization (TZM.bl) [15]: 0.138 µg/mL | IC50 neutralization (TZM.bl) [16]: > 50 µg/mL | IC80 neutralization (TZM.bl) [16]: > 50 µg/mL | IC50 neutralization (TZM.bl) [17]: < 0.001 µg/mL | IC80 neutralization (TZM.bl) [17]: 0.048 µg/mL | IC50 neutralization (TZM.bl) [18]: > 50 µg/mL | IC80 neutralization (TZM.bl) [18]: > 50 µg/mL | IC50 neutralization (TZM.bl) [19]: > 50 µg/mL | IC80 neutralization (TZM.bl) [19]: > 50 µg/mL | IC50 neutralization (TZM.bl) [20]: > 50 µg/mL | IC80 neutralization (TZM.bl) [20]: > 50 µg/mL | IC50 neutralization (TZM.bl) [21]: > 50 µg/mL | IC80 neutralization (TZM.bl) [21]: > 50 µg/mL | IC50 neutralization (TZM.bl) [22]: > 50 µg/mL | IC80 neutralization (TZM.bl) [22]: > 50 µg/mL | IC50 neutralization (TZM.bl) [23]: > 50 µg/mL | IC80 neutralization (TZM.bl) [23]: > 50 µg/mL | IC50 neutralization (TZM.bl) [24]: 0.012 µg/mL | IC80 neutralization (TZM.bl) [24]: 0.039 µg/mL | IC50 neutralization (TZM.bl) [25]: 0.005 µg/mL | IC80 neutralization (TZM.bl) [25]: 0.017 µg/mL | IC50 neutralization (TZM.bl) [26]: > 50 µg/mL | IC80 neutralization (TZM.bl) [26]: > 50 µg/mL | IC50 neutralization (TZM.bl) [27]: > 50 µg/mL | IC80 neutralization (TZM.bl) [27]: > 50 µg/mL | IC50 neutralization (TZM.bl) [29]: 1.08 µg/mL | IC80 neutralization (TZM.bl) [29]: 7.39 µg/mL | IC50 neutralization (TZM.bl) [30]: > 50 µg/mL | IC80 neutralization (TZM.bl) [30]: > 50 µg/mL | IC50 neutralization (TZM.bl) [31]: 0.089 µg/mL | IC80 neutralization (TZM.bl) [31]: 0.297 µg/mL | IC50 neutralization (TZM.bl) [32]: 0.016 µg/mL | IC80 neutralization (TZM.bl) [32]: 0.064 µg/mL
